Measurements as given in patent US20230002480A1.

How the values were obtained:
Assay in all cases: cell-based or functional assay
[1] = biological target: HIV-1 Env of pseudovirus C2101.c01 (HIV-1)
[2] = biological target: HIV-1 Env of pseudovirus 928-28 (HIV-1)
[3] = biological target: HIV-1 Env of pseudovirus CNE20 (HIV-1)
[4] = biological target: HIV-1 Env of pseudovirus 89-F1_2_25 (HIV-1)
[5] = biological target: HIV-1 Env of pseudovirus WEAU_d15_410_787 (HIV-1)
[6] = biological target: HIV-1 Env of pseudovirus ZM249M.PL1 (HIV-1)
[7] = biological target: HIV-1 Env of pseudovirus 1394C9G1(Rev-) (HIV-1)
[8] = biological target: HIV-1 Env of pseudovirus ZM135M.PL10a (HIV-1)
[9] = biological target: HIV-1 Env of pseudovirus X2131_C1_B5 (HIV-1)
[10] = biological target: HIV-1 Env of pseudovirus 6240_08_TA5_4622 (HIV-1)
[11] = biological target: HIV-1 Env of pseudovirus 0260.v5.c36 (HIV-1)
[12] = biological target: HIV-1 Env of pseudovirus 6480.v4.c25 (HIV-1)
[13] = biological target: HIV-1 Env of pseudovirus 3365.v2.c2 (HIV-1)
[14] = biological target: HIV-1 Env of pseudovirus CNE5 (HIV-1)
[15] = biological target: HIV-1 Env of pseudovirus 3301.v1.c24 (HIV-1)
[16] = biological target: HIV-1 Env of pseudovirus Ce1086_B2 (HIV-1)
[17] = biological target: HIV-1 Env of pseudovirus BF1266.431a (HIV-1)
[18] = biological target: HIV-1 Env of pseudovirus SC422661.8 (HIV-1)
[19] = biological target: HIV-1 Env of pseudovirus Ce0682_E4 (HIV-1)
[20] = biological target: HIV-1 Env of pseudovirus 235-47 (HIV-1)
[21] = biological target: HIV-1 Env of pseudovirus Ce703010054_2A2 (HIV-1)

B1: N49P22 (antibody, V domains shown)
V domain 1: HIQLLQSGPQVKKSGDTVRISCETSGYNFVDSRIHWVRQTPEKRLRWMGWINPLQGGVNYAPEFQGRIRMTRDTFIDTVYVDLSGLTPADTAYYYCARGIDGKSYPFHFWGHGTRVTVFS
V domain 2: RFALTQPASVSGSPGQTITITCAGGSVSWFHFPPGKTPRLIIYESSKRPSGVSPRFSGSQSGSTASLIISGLQSDDEGTYFCSILEFFGRGTLVTVLS
IC50 [1]: 0.171 mg/L | IC80 [1]: 1.06 mg/L | MPI [1]: 99 | IC50 [2]: > 50 mg/L | IC80 [2]: > 50 mg/L | MPI [2]: 32 | IC50 [3]: > 50 mg/L | IC80 [3]: > 50 mg/L | MPI [3]: 18 | IC50 [4]: > 50 mg/L | IC80 [4]: > 50 mg/L | MPI [4]: 10 | IC50 [5]: 1.54 mg/L | IC80 [5]: > 50 mg/L | MPI [5]: 76 | IC50 [6]: > 50 mg/L | IC80 [6]: > 50 mg/L | MPI [6]: 0 | IC50 [7]: > 50 mg/L | IC80 [7]: > 50 mg/L | MPI [7]: 35 | IC50 [8]: > 50 mg/L | IC80 [8]: > 50 mg/L | MPI [8]: 27 | IC50 [9]: > 50 mg/L | IC80 [9]: > 50 mg/L | MPI [9]: 44 | IC50 [10]: 2.33 mg/L | IC80 [10]: 9.76 mg/L | MPI [10]: 93 | IC50 [11]: 1.67 mg/L | IC80 [11]: 14.4 mg/L | MPI [11]: 93 | IC50 [12]: 0.809 mg/L | IC80 [12]: 32.1 mg/L | MPI [12]: 86 | IC50 [13]: 0.254 mg/L | IC80 [13]: 0.857 mg/L | MPI [13]: 98 | IC50 [14]: 0.281 mg/L | IC80 [14]: 1.55 mg/L | MPI [14]: 96 | IC50 [15]: 2.82 mg/L | IC80 [15]: 48.8 mg/L | MPI [15]: 80 | IC50 [16]: > 50 mg/L | IC80 [16]: > 50 mg/L | MPI [16]: 0 | IC50 [17]: > 50 mg/L | IC80 [17]: > 50 mg/L | MPI [17]: 0 | IC50 [18]: 0.12 mg/L | IC80 [18]: 0.544 mg/L | MPI [18]: 100 | IC50 [19]: 1.13 mg/L | IC80 [19]: > 50 mg/L | MPI [19]: 75 | IC50 [20]: 0.037 mg/L | IC80 [20]: 0.373 mg/L | MPI [20]: 99 | IC50 [21]: > 50 mg/L | IC80 [21]: > 50 mg/L | MPI [21]: 0

B2: N49P23 (antibody, V domains shown)
VH: QVRLVQSGAGARKTGASMKLSCSTSGYTFTTHHGHFINWVRQARGQGLEWMGWMNPMTGQMNIEGKFQGRVTLTRDIYSDTAYMEMTRLTTGDTGTYYCARGDFGQNYPFHYWGQGSLVIVSS
VL: LSALTQPASVSGSPGQSVTISCSGTNRYLVSWYQQHPDKAPKLIIYDDNKRPSGISDRFSASRPDDTASLTISGLQTGDEATYWCASYERFGGGTRLTVLS
IC50 [1]: 0.056 mg/L | IC80 [1]: 0.362 mg/L | MPI [1]: 100 | IC50 [2]: 0.021 mg/L | IC80 [2]: 0.122 mg/L | MPI [2]: 100 | IC50 [3]: 45.4 mg/L | IC80 [3]: > 50 mg/L | MPI [3]: 51 | IC50 [4]: > 50 mg/L | IC80 [4]: > 50 mg/L | MPI [4]: 5 | IC50 [5]: 0.009 mg/L | IC80 [5]: 0.031 mg/L | MPI [5]: 100 | IC50 [6]: > 50 mg/L | IC80 [6]: > 50 mg/L | MPI [6]: 2 | IC50 [7]: > 50 mg/L | IC80 [7]: > 50 mg/L | MPI [7]: 34 | IC50 [8]: > 50 mg/L | IC80 [8]: > 50 mg/L | MPI [8]: 36 | IC50 [9]: 0.08 mg/L | IC80 [9]: 0.28 mg/L | MPI [9]: 100 | IC50 [10]: 0.215 mg/L | IC80 [10]: 1 mg/L | MPI [10]: 100 | IC50 [11]: 0.261 mg/L | IC80 [11]: 0.919 mg/L | MPI [11]: 100 | IC50 [12]: > 50 mg/L | IC80 [12]: > 50 mg/L | MPI [12]: 29 | IC50 [13]: 0.017 mg/L | IC80 [13]: 0.053 mg/L | MPI [13]: 100 | IC50 [14]: 0.058 mg/L | IC80 [14]: 0.226 mg/L | MPI [14]: 100 | IC50 [15]: 0.017 mg/L | IC80 [15]: 0.058 mg/L | MPI [15]: 100 | IC50 [16]: 0.063 mg/L | IC80 [16]: 0.303 mg/L | MPI [16]: 100 | IC50 [17]: 0.083 mg/L | IC80 [17]: 0.44 mg/L | MPI [17]: 99 | IC50 [18]: 0.069 mg/L | IC80 [18]: 0.245 mg/L | MPI [18]: 100 | IC50 [19]: 1.39 mg/L | IC80 [19]: > 50 mg/L | MPI [19]: 76 | IC50 [20]: 0.085 mg/L | IC80 [20]: 0.749 mg/L | MPI [20]: 90 | IC50 [21]: > 50 mg/L | IC80 [21]: > 50 mg/L | MPI [21]: 35
